Key:
TRB1 = molecular target: T1, TRB1 (Arabidopsis thaliana, UniProt Q8VWK4 1-300); experiment: EMSA; high-molecular-weight complex not entering the gel; resists 100x non-telomeric competitor; 10 mM Tris-HCl pH 8.0, 1 mM EDTA, 1 mM DTT, 50 mM NaCl, 5% glycerol; 10 pmol protein, 1 pmol probe, on ice 20 min; 7.5% PAGE, 0.5x TBE, 15 C; settings: protein: recombinant; tags: His-tag (pHGWA); label: 32P 5'-end; blunt
T1 sequence: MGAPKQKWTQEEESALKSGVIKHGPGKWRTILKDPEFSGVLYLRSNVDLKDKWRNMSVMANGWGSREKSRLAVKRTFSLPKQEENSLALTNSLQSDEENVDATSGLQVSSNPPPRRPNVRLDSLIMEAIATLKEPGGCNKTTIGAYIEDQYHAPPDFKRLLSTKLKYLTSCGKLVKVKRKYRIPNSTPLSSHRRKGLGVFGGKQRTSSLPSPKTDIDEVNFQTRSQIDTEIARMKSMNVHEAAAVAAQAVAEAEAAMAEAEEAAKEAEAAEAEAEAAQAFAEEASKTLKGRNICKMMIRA

TRB4 [1] = molecular target: T2, TRB4 (Arabidopsis thaliana, UniProt F4I7L1 1-296); experiment: as above; settings: protein: recombinant; tags: His-tag (pHGWA); chain copies: 2; label: 32P 5'-end; blunt
T2 sequence: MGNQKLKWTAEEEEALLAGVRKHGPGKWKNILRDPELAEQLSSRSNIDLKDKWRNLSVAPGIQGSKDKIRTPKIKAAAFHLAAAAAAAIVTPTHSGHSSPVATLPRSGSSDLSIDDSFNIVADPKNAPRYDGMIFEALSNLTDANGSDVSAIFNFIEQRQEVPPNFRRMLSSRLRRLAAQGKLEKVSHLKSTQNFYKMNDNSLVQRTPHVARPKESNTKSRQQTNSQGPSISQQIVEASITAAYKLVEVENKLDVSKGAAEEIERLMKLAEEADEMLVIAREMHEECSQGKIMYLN

TRB5 [2] = molecular target: T3, TRB5 (Arabidopsis thaliana (Col-0), UniProt F4IEY4 1-287); experiment: as above; settings: protein: recombinant; tags: His-tag (pHGWA); chain copies: 2; label: 32P 5'-end; blunt
T3 sequence: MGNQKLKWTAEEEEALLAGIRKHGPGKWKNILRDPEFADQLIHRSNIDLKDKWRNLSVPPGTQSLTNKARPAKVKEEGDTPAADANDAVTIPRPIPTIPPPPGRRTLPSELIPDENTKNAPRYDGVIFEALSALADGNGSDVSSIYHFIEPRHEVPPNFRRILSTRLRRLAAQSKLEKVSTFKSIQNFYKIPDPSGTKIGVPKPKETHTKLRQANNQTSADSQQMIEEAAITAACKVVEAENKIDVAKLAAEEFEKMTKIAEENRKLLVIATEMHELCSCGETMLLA

TRB4 [3] = molecular target: T2, TRB4; experiment: EMSA; non-telomeric competitor 1-100x; 10 mM Tris-HCl pH 8.0, 1 mM EDTA, 1 mM DTT, 50 mM NaCl, 5% glycerol; 10 pmol protein, 1 pmol probe, on ice 20 min; 7.5% PAGE, 0.5x TBE, 15 C; settings: protein: recombinant; tags: His-tag (pHGWA); chain copies: 2; label: 32P 5'-end; blunt
TRB5 [4] = molecular target: T3, TRB5; experiment: as above; settings: protein: recombinant; tags: His-tag (pHGWA); chain copies: 2; label: 32P 5'-end; blunt

B1: telomeric (four plant telomeric repeats) (dsDNA)
DNA 1: AAACCCTAAACCCTAAACCCTAAACCCT
DNA 2: AGGGTTTAGGGTTTAGGGTTTAGGGTTT
B1: binds (TRB1); binds (TRB4 [1]); binds (TRB5 [2]).

B2: telo-box (dsDNA)
DNA 1: TTTTTCACGAAAACCCTAATCGCAGTCG
DNA 2: CGACTGCGATTAGGGTTTTCGTGAAAAA
B2: binds (TRB4 [3]); binds (TRB5 [4]).

— publication PMC10167121, “Completing the TRB family: newly characterized members show ancient evolutionary origins and distinct localization, yet similar interactions”
